These results are taken from patent US20180326084A1 (Genmab, published 2018).

As usually defined, the EC50 is the concentration at which the effect is half-maximal. What is called Kd is the concentration at which binding is half-saturated. A word on the koff: it is the rate constant with which the complex falls apart. In general, kon refers to the rate constant with which the complex forms.

For assay [1], the target named is T1, human AXL (full length) (human, UniProt P30530 26-894).
T1 construct: also called TH1021-AXL; TH1021-hAXL
Briefly: FMAT screening assay, HEK-293F cells transiently expressing human AXL.

Assay [2] addresses T2, Homo sapiens AXL-Mus musculus Ig2 domain (p33-AXL-mIg2) (human-mouse chimera, UniProt P30530 26-894).
T2 construct: Expressed in HEK293F cells; also called hsAXL-mmIg2; TH1021-mIg2
T2 chain: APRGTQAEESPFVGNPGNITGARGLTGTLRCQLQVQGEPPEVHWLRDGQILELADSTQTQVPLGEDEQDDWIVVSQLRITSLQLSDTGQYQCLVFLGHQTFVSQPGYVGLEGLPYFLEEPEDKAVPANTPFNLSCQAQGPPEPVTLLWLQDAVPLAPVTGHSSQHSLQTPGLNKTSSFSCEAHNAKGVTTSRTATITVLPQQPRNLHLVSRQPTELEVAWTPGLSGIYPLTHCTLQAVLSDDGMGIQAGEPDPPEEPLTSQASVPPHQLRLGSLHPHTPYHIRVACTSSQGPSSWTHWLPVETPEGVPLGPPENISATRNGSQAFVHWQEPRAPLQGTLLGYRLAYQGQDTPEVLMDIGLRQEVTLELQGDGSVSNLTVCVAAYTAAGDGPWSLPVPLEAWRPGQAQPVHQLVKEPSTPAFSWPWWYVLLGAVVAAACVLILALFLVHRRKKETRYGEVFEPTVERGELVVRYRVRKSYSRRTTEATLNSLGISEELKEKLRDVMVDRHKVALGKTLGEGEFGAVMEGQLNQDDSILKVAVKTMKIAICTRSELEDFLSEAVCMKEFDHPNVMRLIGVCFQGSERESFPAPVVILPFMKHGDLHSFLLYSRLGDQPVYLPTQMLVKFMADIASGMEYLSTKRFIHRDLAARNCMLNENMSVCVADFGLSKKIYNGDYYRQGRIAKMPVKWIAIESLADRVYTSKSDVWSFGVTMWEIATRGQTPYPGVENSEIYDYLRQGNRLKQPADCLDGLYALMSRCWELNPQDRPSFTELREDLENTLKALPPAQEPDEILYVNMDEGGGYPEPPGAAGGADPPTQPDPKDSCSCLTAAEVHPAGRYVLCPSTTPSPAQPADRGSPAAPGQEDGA
The assay can be described thus: flow cytometry, 1 µg/mL antibody, transfected HEK293F cells. Background: Flow cytometry measures light scatter and fluorescence of single cells or particles in a stream.

Assay [3] addresses T3, Homo sapiens AXL-Mus musculus FN2 domain (p33-AXL-mFN2) (human-mouse chimera, UniProt P30530 26-894).
T3 construct: Expressed in HEK293F cells; also called hsAXL-mmFN2; TH1021-mFN2
T3 chain: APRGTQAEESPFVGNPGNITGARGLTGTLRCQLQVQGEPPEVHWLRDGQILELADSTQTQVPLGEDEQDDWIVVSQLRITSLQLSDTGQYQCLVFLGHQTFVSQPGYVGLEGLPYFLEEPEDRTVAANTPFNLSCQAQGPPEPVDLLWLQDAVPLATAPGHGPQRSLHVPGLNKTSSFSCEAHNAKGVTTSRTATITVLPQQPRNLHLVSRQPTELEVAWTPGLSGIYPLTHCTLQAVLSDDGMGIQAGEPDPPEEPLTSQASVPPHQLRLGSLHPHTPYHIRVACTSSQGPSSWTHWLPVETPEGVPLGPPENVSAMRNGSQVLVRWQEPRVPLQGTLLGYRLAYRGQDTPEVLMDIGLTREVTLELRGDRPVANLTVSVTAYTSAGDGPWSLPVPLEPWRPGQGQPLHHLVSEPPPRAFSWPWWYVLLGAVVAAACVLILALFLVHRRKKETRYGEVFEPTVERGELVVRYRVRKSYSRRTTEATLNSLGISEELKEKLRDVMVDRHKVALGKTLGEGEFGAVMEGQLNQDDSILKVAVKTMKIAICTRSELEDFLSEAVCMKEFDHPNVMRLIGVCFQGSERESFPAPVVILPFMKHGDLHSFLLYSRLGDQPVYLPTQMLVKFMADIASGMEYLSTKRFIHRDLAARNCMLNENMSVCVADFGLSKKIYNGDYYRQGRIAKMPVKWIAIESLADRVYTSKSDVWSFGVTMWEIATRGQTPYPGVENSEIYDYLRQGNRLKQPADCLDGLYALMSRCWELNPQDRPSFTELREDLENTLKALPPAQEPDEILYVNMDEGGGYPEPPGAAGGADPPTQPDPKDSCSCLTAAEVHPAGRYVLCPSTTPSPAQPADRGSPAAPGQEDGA
Described as above.

Assay [4] addresses T4, Homo sapiens AXL-Mus musculus Ig1 domain (p33-AXL-mIg1) (human-mouse chimera, UniProt P30530 8-894).
T4 construct: Expressed in HEK293F cells; also called hsAXL-mmIg1; hsAXL-mmIgl
T4 chain: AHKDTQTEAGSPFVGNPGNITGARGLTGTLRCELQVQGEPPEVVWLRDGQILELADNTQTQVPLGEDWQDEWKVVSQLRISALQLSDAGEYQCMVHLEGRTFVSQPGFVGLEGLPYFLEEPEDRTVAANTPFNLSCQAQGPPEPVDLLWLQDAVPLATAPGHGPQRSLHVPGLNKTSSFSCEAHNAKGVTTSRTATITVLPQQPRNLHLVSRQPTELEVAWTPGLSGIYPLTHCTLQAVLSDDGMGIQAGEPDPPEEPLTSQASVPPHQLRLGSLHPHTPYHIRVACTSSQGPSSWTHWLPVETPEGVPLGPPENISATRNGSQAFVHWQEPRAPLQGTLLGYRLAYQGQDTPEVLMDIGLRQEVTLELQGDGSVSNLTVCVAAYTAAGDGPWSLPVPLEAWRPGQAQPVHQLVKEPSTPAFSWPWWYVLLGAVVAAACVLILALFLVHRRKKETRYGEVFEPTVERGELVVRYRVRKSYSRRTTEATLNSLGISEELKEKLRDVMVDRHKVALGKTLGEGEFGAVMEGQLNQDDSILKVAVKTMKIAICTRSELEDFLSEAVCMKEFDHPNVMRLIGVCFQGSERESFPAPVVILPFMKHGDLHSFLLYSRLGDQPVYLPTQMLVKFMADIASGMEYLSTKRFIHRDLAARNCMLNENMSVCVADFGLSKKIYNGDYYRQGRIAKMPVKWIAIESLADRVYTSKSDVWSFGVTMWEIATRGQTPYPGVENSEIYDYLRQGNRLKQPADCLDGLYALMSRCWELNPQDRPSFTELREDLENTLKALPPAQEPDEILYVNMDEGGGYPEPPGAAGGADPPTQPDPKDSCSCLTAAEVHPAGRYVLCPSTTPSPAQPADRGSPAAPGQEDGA
The assay is described as above.

Assay [5] concerns the target T1, human AXL (full length). Briefly: flow cytometry, HEK293T cells with full-length human AXL.
The target in the next assay is T5, AXLECDHis (human, UniProt P30530 26-447).
T5 construct: theoretical mass 46 kDa used; also called extracellular domain (ECD) of human AXL (aa 1-447) with a C-terminal His tag; soluble recombinant AXL extracellular domain
The assay can be described thus: BLI (Octet), IgG on anti-human Fc sensor, AXLECDHis analyte.

The target in assay [6] is T6, human AXL with a cynomolgus monkey extracellular domain (ECD) (cynomolgus monkey (Macaca …, UniProt P30530 26-894)).
T6 construct: Chimera on transfected HEK293T cells; also called cynomolgus AXL; cynomolgus AXL-ECD
T6 chain: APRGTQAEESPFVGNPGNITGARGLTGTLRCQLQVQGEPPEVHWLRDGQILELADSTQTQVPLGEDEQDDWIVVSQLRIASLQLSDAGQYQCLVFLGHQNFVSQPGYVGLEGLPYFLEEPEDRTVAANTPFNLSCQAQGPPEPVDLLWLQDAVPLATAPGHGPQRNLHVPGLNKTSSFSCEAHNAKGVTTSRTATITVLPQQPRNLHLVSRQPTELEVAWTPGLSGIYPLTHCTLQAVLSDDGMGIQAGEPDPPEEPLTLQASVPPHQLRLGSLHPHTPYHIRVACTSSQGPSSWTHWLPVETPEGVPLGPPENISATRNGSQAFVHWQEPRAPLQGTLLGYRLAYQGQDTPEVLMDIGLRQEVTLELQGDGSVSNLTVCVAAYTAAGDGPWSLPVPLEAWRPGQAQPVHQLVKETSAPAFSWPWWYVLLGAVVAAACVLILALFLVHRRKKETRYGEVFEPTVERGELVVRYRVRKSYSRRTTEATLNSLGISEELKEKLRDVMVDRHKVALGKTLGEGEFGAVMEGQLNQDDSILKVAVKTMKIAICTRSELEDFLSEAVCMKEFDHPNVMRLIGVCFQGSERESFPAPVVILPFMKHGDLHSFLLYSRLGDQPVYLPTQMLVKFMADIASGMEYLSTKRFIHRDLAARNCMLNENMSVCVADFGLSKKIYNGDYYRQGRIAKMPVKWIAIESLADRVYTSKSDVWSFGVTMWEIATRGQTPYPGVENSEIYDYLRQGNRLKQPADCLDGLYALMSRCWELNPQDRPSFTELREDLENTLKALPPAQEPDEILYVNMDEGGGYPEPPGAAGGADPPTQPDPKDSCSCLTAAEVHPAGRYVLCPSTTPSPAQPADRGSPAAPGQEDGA
Briefly: flow cytometry, HEK293T cells with human AXL carrying cynomolgus ECD.

B1: IgG1-AXL-613-08 (antibody, V domains shown)
VH: QVQLVQSGAEVKKPGSSVKVSCKASGGTFSSYAINWMRQAPGQGLEWMGRIIPIFGIVNYAQKFQGRVTLTADKSTSTAYMELSSLRSEDTAVYYCARRGNYYGSGSPDVFDIWGQGTMVTVSS
VL: EIVLTQSPATLSLSPGERATLSCRASQSVSSYLAWYQQKPGQAPRLLIYDASNRATGIPARFSGSGSGTDFTLTISSLEPEDFAVYYCQQRSNWLTFGGGTKVEIK
Regarding B1, in the assay with human AXL (full length) [1], the response was half-maximal at 24.2 ng/mL (EC50) and the “Maximal binding (Arbitrary units)” value came to 2210 arbitrary units.

B2: IgG1-AXL-154 (antibody, V domains shown)
VH: EVQLLDSGGGLVQPGGSLRLSCAASGFTFSSYAMSWVRQAPGKGLEWVSAISIGGGNAYYADSVKGRFTISRDNSKNTLYLQMNSLRAADTAVYYCAKPGFIMVRGPLDYWGQGALVTVSS
VL: not shown
B2: the binding result in assay [2], in assay [3] and in assay [4] was “binds” each time.

B3: IgG1-AXL-140 (antibody, V domains shown)
VH: EVQLLESGGGLVQPGGSLRLSCAASGFTFSSYAMTWVRQAPGKGLEWVSAISISGASTFYADSVKGRFTISRDNSKNTLSLQMNSLRAEDTAVYFCRGYSGYVYDAFDIWGQGTMVTVSS
VL: DIQMTQSPSSLSASVGDRVTITCRASQGISNWLAWYQQKPEKAPKSLIYAASSLQSGVPSRFSGSGSGTDFTLTISSLQPEDFATYYCQQYNSYPLTFGGGTKVEIK
On to B3, for which, in the assay with human AXL (full length) [1], the midpoint of the response, the EC50, lay at 2.6 ng/mL and the “Maximal binding (Arbitrary units)” value is 2890 arbitrary units.

B4: IgG1-AXL-726-M101L (antibody, V domains shown)
VH: QVQLQQWGAGLLKPSETLSLTCAIDGGSFSGYYWSWIRQPPGKGLEWIGEISHSGRTNYNPSLKSRVTISIDTSKNQFSLKLSSVAAADTAVYYCARFITLIRGAIITHFDYWGQGALVTVSS
VL: DIQMTQSPSSLSASVGDRVTITCRASQGISSWLAWYQQKPEKAPKSLIYAASSLQSGVPSRFSGSGSGTDFTLTISSLQPEDFATYYCQQYHSYPYTFGQGTKLEIK
notes: Expressed as human IgG1,κ
In the case of B4, in the assay with human AXL (full length) [5], the concentration giving a half-maximal response (EC50) was determined as 0.184 µg/mL. Also, in the assay with AXLECDHis, binding was characterised by a dissociation constant (Kd) of 0.3 nM, the koff is 6.9e-05 s⁻¹ and the kon turned out to be 210000 M⁻¹ s⁻¹. Further, the EC50 in assay [6] turned out to be 0.25 µg/mL.

B5: IgG1-AXL-187 (antibody, V domains shown)
VH: QVPLQQWGAGLLKPSETLSLTCAVYGGSFSGYHWSWIRQPPGKGLEWIGEISHSGRTNYNPSLKSRVTISIDTSKNQFSLKLSSVTAADTAVYYCASFITMIRGTIITHFDYWGQGTLVTVSS
VL: DIQMTQSPSSLSASVGDRVTITCRASQGISSWLAWYQQKPEKAPKSLIYAASSLQSGVPSRFSGSGSGTDFTLTISSLQPEDFATYYCQQYHSYPYTFGQGTKLEIK
Take B5: in the assay with human AXL (full length) [1], the EC50 came out at 6.5 ng/mL and the “Maximal binding (Arbitrary units)” value is 2560 arbitrary units.
